Measurements reported in publication doi:10.1101/2021.05.30.446358.

Target: LH1 αβ-polypeptide pair of Rhodospirillum rubrum (Rhodospirillum rubrum) (UniProt P02947)
Experiment: cryo-EM structure

stoichiometry N: 16
Substance: LH1 αβ-polypeptide pair of Rhodospirillum rubrum (from UniProt P02947 1-52; P02950 1-49) (complex)
